Like-named read-outs stand apart in the source and are kept apart here. One block for each molecule: values may come before it.
B1: IL-33 (residues 112-270) (ligand, UniProt O95760 112-270, looked up)
chain: SITGISPITEYLASLSTYNDQSITFALEDESYEIYVEDLKKDEKKDKVLLSYYESQHPSNESGDGVDGKMLMVTLSPTKDFWLHANNKEHSVELHKCEKPLPDQAFFVLHNMHSNCVSFECKTDPGVFIGVKDNHLALIKVDSSENLCTENILFKLSET
notes: Interleukin-33, residues 112-270; Used unlabelled as the analyte in BLI; source: E. coli Rosetta2 (DE3), purified (Ni-NTA, TEV cleavage, second Ni-NTA, Superdex 75); not shown: His6, N-terminal, cleaved

Columns and labels:
IL-1α (Homo sapiens) = IL-1α (Homo sapiens) (UniProt P01583); conditions: cited from earlier work
IL-1α (Homo sapiens), sequence (P01583 113-271): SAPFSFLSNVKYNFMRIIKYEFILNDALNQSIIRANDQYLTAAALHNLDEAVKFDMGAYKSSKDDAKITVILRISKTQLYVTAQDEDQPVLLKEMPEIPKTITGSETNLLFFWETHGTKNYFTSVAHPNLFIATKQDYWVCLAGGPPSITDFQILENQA

IL-1Ra (Homo sapiens) = IL-1Ra (Homo sapiens) (UniProt P18510); conditions: cited from earlier work
IL-1Ra (Homo sapiens), sequence (P18510 26-177): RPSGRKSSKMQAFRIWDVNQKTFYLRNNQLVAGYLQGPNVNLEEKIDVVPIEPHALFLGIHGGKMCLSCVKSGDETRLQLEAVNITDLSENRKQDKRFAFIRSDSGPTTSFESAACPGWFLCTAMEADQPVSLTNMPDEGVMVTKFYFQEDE

IL-1β (Homo sapiens) [1] = molecular target: IL-1β (Homo sapiens) (UniProt P01584); conditions: cited from earlier work
IL-1β (Homo sapiens), sequence (P01584 117-269): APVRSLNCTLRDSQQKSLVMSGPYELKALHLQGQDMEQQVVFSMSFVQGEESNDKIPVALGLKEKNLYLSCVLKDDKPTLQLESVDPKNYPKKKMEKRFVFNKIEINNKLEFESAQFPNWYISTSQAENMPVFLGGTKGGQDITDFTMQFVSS

IL-33 (Homo sapiens) = IL-33 (Homo sapiens) (UniProt O95760); assay: ITC; conditions: cited from earlier work
IL-1β (Homo sapiens) [2] = molecular target: IL-1β (Homo sapiens) (UniProt P01584); conditions: cited from earlier work; remark: listed apart in the source
[3] = molecular target: ST2 D1-D2 domain (sequence 19-206) (UniProt Q01638 19-206, biotinylated with Biotin-PEO4 linker (equimolar ratio)); assay: BLI; OctetRED96; biotinylated ST2 loaded on streptavidin sensors (20 ug/mL, 10 min), serial dilutions of IL-33 in solution; 25 C; 10 mM HEPES pH 7.5, 150 mM NaCl, 0.005% Tween 20, 100 uM EDTA; 1:1 binding model, KD calculated from kon and koff; conditions: both partners purified
IL-33 (residues 112-270) = molecular target: B1; assay: as above; conditions: both partners purified

Molecule: IL-1R1 D1-D2 (from UniProt P14778)
- Kd (IL-1α (Homo sapiens)): 7 µM
- Kd (IL-1Ra (Homo sapiens)): 28 nM
- Kd (IL-1β (Homo sapiens) [1]): > 10 µM

Molecule: ST2 ECD (from UniProt Q01638)
- Kd (IL-33 (Homo sapiens)): 5 nM

Molecule: IL-1R1 D1-D3 (from UniProt P14778)
- Kd (IL-1β (Homo sapiens) [2]): 2 nM

Molecule: B1
- Kd [3]: 65.1 nM
- koff [3]: 0.215 s⁻¹
- kon [3]: 3.3e+06 M⁻¹ s⁻¹

- Kd (IL-33 (residues 112-270)): 2.23 nM
- koff (IL-33 (residues 112-270)): 0.00115 s⁻¹
- kon (IL-33 (residues 112-270)): 516000 M⁻¹ s⁻¹
B2: ST2 ectodomain, D1-D3 domains (sequence 19-323) (domain or fragment)
chain: KFSKQSWGLENEALIVRCPRQGKPSYTVDWYYSQTNKSIPTQERNRVFASGQLLKFLPAAVADSGIYTCIVRSPTFNRTGYANVTIYKKQSDCNVPDYLMYSTVSGSEKNSKIYCPTIDLYNWTAPLEWFKNCQALQGSRYRAHKSFLVIDNVMTEDAGDYTCKFIHNENGANYSVTATRSFTVKDEQGFSLFPVIGAPAQNEIKEVEIGKNANLTCSACFGKGTQFLAAVLWQLNGTKITDFGEPRIQQEEGQNQSFSNGLACLDMVLRIADVKEEDLLLQYDCLALNLHGLRRHTVRLSRKNP
modifications: biotinylated with Biotin-PEO4 linker (equimolar ratio)
